Data published in PMC11912937 (The Journal of Cell Biology, 2025).

How the values were obtained:
Details in all cases: both partners purified
[1] = target: T1, ^GSTCENP-OPQUR (CENP-OPQUR with CENP-U fused to an N-terminal GST) (human, UniProt Q9BU64 1-300; Q6IPU0 1-288; Q7L2Z9 1-268; Q71F23 1-418; Q13352 1-177); experiment: pull-down; glutathione-agarose, CENP-OPQUR with GST on CENP-U as bait, FACT constructs as preys; 3 µM each; 20 mM Hepes pH 6.8, 300 mM NaCl, 2.5% glycerol, 1 mM TCEP, 0.01% Tween; 4°C
T1 construct: CENP-O; CENP-P; CENP-Q; CENP-U; CENP-R; also called GST-tagged CENP-OPQUR; not shown: GST, N-terminal, kept; copies: + + + +

[2] = target: T2, CCAN, 16-subunit constitutive centromere-associated network reconstituted with CENP-C^2–545 (human, UniProt Q03188 2-545; Q9H3R5 1-247; Q92674 1-756; Q9BS16 1-269; Q9NSP4 1-180; Q8N0S6 …); experiment: pull-down; amylose resin, MBP-tagged FACT (untreated, dephosphorylated, kinase-treated or truncated) as bait, CCAN or CCAN subcomplexes as preys; 3 µM each; 20 mM Hepes pH 6.8, 300 mM NaCl, 2.5% glycerol, 1 mM TCEP, 0.01% Tween; 4°C; SDS-PAGE, Coomassie
T2 construct: CENP-H; CENP-I; CENP-K; CENP-M; CENP-L; CENP-N; CENP-O; CENP-P; CENP-Q; CENP-U; CENP-R; CENP-T; CENP-W; CENP-S; CENP-X; source: recombinant subcomplexes expressed and purified as previously reported, mixed to reconstitute CCAN; copies: + + + + + + + + + + + + + + +

[3] = target: T3, FACT complex (SPT16/SSRP1), full length, untreated (human, UniProt Q9Y5B9 1-1047; Q08945 1-709, phosphorylated as purified from insect cells; residues not printed | phosphorylated as purified from insect cells; residues not given); experiment: pull-down; amylose resin, MBP-CENP-C fusion proteins (fragments or full-length ^MBPCENP-C^EGFP) as baits, FACT or FACT constructs as preys; 3 µM each; 20 mM Hepes pH 6.8, 300 mM NaCl, 2.5% glycerol, 1 mM TCEP, 0.01% Tween; 4°C
T3 construct: SPT16, FACT subunit; SSRP1, FACT subunit; His tags are followed by a TEV site; cleavage is not described; also called FAcilitates Chromatin Transcription complex; full-length FACT; source: Tnao38 insect cells (baculovirus), purified (HisTrap, HiTrap Q, SEC)
T3 sequence (Q9Y5B9 whole entry, the tested form may be a part, one chain of several): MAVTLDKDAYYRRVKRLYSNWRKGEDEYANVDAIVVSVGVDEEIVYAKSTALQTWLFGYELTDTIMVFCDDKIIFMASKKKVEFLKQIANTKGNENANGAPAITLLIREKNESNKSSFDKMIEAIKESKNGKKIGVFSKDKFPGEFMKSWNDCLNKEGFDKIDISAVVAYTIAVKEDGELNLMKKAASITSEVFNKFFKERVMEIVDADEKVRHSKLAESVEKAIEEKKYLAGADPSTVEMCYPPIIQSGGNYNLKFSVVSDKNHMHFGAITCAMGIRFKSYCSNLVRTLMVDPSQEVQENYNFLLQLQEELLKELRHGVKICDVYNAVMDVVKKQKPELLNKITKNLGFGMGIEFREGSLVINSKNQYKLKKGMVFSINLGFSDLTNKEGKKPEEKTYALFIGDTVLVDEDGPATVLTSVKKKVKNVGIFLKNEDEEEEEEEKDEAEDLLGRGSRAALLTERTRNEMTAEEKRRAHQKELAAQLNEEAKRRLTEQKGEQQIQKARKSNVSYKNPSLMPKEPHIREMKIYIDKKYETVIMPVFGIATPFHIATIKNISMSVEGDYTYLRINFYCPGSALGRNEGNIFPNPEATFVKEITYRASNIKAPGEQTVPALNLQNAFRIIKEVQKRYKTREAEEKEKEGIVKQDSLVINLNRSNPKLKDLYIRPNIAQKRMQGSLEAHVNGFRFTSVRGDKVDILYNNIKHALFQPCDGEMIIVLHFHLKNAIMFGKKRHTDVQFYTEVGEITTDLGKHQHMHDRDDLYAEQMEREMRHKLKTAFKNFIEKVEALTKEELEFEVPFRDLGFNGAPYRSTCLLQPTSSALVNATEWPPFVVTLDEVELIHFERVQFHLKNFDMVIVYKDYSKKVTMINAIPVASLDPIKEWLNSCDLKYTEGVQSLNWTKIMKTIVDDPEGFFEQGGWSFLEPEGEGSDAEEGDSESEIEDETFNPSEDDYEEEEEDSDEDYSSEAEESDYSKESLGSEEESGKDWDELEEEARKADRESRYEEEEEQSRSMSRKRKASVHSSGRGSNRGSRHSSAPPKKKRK

[4] = target: T4, ^MBPCENP-C^EGFP (a full-length CENP-C construct) (human, UniProt Q03188 1-943); experiment: as above
T4 construct: CENP-C; also called ^His-MBPCENP-C^EGFP; source: Tnao38 insect cells (baculovirus), purified (TALON, heparin, SEC); not shown: MBP, N-terminal, kept; EGFP, C-terminal, kept
T4 sequence (Q03188 whole entry): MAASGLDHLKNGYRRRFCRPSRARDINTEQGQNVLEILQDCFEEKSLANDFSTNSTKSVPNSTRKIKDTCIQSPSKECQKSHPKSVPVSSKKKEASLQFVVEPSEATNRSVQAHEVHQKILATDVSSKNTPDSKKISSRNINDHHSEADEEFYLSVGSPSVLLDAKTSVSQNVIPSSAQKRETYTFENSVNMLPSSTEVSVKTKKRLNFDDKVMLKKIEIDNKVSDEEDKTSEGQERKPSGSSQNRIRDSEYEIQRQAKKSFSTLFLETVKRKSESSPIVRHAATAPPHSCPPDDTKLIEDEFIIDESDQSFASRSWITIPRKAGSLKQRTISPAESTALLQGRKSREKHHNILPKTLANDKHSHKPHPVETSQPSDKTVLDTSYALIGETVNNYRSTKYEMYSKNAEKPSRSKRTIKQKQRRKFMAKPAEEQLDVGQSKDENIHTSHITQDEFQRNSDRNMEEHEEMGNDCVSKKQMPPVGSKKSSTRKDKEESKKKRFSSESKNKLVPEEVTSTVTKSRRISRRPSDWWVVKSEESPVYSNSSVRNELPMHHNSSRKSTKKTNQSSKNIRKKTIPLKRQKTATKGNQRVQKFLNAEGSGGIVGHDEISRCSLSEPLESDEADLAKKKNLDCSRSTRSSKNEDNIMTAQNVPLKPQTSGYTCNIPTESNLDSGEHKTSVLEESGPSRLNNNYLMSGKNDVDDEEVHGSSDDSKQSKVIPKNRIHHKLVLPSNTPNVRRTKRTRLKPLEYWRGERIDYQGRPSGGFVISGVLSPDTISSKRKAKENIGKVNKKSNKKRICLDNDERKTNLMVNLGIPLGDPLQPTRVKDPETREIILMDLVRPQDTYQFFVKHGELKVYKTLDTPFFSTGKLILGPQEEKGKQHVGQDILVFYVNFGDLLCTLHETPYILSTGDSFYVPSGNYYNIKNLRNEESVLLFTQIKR

B1: FACT^trunc (SPT16^508–988/SSRP1^1–514) (complex, human)
chain 1: SNVSYKNPSLMPKEPHIREMKIYIDKKYETVIMPVFGIATPFHIATIKNISMSVEGDYTYLRINFYCPGSALGRNEGNIFPNPEATFVKEITYRASNIKAPGEQTVPALNLQNAFRIIKEVQKRYKTREAEEKEKEGIVKQDSLVINLNRSNPKLKDLYIRPNIAQKRMQGSLEAHVNGFRFTSVRGDKVDILYNNIKHALFQPCDGEMIIVLHFHLKNAIMFGKKRHTDVQFYTEVGEITTDLGKHQHMHDRDDLYAEQMEREMRHKLKTAFKNFIEKVEALTKEELEFEVPFRDLGFNGAPYRSTCLLQPTSSALVNATEWPPFVVTLDEVELIHFERVQFHLKNFDMVIVYKDYSKKVTMINAIPVASLDPIKEWLNSCDLKYTEGVQSLNWTKIMKTIVDDPEGFFEQGGWSFLEPEGEGSDAEEGDSESEIEDETFNPSEDDYEEEEEDSDEDYSSEAEESDYSKESLGSEEESGK
chain 2: MAETLEFNDVYQEVKGSMNDGRLRLSRQGIIFKNSKTGKVDNIQAGELTEGIWRRVALGHGLKLLTKNGHVYKYDGFRESEFEKLSDFFKTHYRLELMEKDLCVKGWNWGTVKFGGQLLSFDIGDQPVFEIPLSNVSQCTTGKNEVTLEFHQNDDAEVSLMEVRFYVPPTQEDGVDPVEAFAQNVLSKADVIQATGDAICIFRELQCLTPRGRYDIRIYPTFLHLHGKTFDYKIPYTTVLRLFLLPHKDQRQMFFVISLDPPIKQGQTRYHFLILLFSKDEDISLTLNMNEEEVEKRFEGRLTKNMSGSLYEMVSRVMKALVNRKITVPGNFQGHSGAQCITCSYKASSGLLYPLERGFIYVHKPPVHIRFDEISFVNFARGTTTTRSFDFEIETKQGTQYTFSSIEREEYGKLFDFVNAKKLNIKNRGLKEGMNPSYDEYADSDEDQHDAYLERMKEEGKIREENANDSSDDSGEETDESFNPGEEEEDVAEEFDSNASASSSSNEGDSDRDE
notes: SPT16, residues 508-988; SSRP1, residues 1-514; also called construct 2; source: Tnao38 insect cells (baculovirus), purified (HisTrap, HiTrap Q, SEC)
B1: binds [1].

B2: ^MBPFACT^trunc (MBP-TEV-SPT16^508–988 + His-TEV-SSRP1^1–514) (complex, human)
chain 1: B1 chain 1
chain 2: B1 chain 2
notes: SPT16, residues 508-988; SSRP1, residues 1-514; also called construct 2 with an N-terminal MBP fusion on SPT16; source: Tnao38 insect cells (baculovirus), purified (HisTrap, HiTrap Q, SEC); not shown: MBP, N-terminal, kept
B2: binds [2].

B3: ^MBPCENP-C^546–600-His (domain or fragment, human, UniProt Q03188 546-600, looked up)
chain: VRNELPMHHNSSRKSTKKTNQSSKNIRKKTIPLKRQKTATKGNQRVQKFLNAEGS
notes: CENP-C, residues 546-600; not shown: MBP, N-terminal, kept
B3: binds [3].

B4: SPT16^Mid-AID (SPT16^644–988) (domain or fragment, human, UniProt Q9Y5B9 644-988, looked up)
chain: GIVKQDSLVINLNRSNPKLKDLYIRPNIAQKRMQGSLEAHVNGFRFTSVRGDKVDILYNNIKHALFQPCDGEMIIVLHFHLKNAIMFGKKRHTDVQFYTEVGEITTDLGKHQHMHDRDDLYAEQMEREMRHKLKTAFKNFIEKVEALTKEELEFEVPFRDLGFNGAPYRSTCLLQPTSSALVNATEWPPFVVTLDEVELIHFERVQFHLKNFDMVIVYKDYSKKVTMINAIPVASLDPIKEWLNSCDLKYTEGVQSLNWTKIMKTIVDDPEGFFEQGGWSFLEPEGEGSDAEEGDSESEIEDETFNPSEDDYEEEEEDSDEDYSSEAEESDYSKESLGSEEESGK
notes: SPT16, Mid domain and AID segment, residues 644-988; also called construct 3; source: Tnao38 insect cells (baculovirus), purified (HisTrap, HiTrap Q, SEC)
B4: binds [4].

B5: ^MBPCENP-C^721–759-His (domain or fragment, human, UniProt Q03188 721-759, looked up)
chain: KNRIHHKLVLPSNTPNVRRTKRTRLKPLEYWRGERIDYQ
notes: CENP-C, residues 721-759; not shown: MBP, N-terminal, kept
B5: binds [3].
